Read-outs that look alike come from different tables or passages of the source.
Experiments:
E. coli BL21(DE3)pLysS [1] = assay: MICs of beta-lactams on LB-agar for E. coli expression strains (Example 4); format: cell-based, Escherichia coli; conditions: Table 10; for MIC of the antibiotic for the empty strain BL21(DE3)pLysS: no recombinant protein
Experimental: The pre-cultures are then inoculated at 1/40th in 5 ml of LB+50 μg/ml Kanamycin medium and when the OD600 reaches a value of 0.6 (about 2 hours), the production of protein is induced by the addition of final IPTG 1 mM and continues for 1.5 hours at 37° C. with stirring at 200 rpm.
The dishes were incubated at 37° C. overnight and the results were recorded the following day. The MICs correspond to the lowest concentration of antibiotic at which the highest inoculum doesn't grow.

[2] = cited from earlier work
E. coli BL21(DE3)pLysS [3] = assay: MICs of beta-lactams and macrolide on LB-agar for E. coli expression strains (Example 6); format: cell-based, Escherichia coli; conditions: Table 14
Experimental: The pre-cultures are then inoculated at 1/40th in 5 ml of LB+50 μg/ml Kanamycin medium and when the OD600 nm reaches a value of 0.6 (about 2 hours), the production of protein is induced by the addition of 1 mM final IPTG and continued for 1.5 hours at 37° C. with stirring at 200 rpm.
The dishes are incubated at 37° C. over night and the results are recorded the next day. The MICs correspond to the lowest concentration of antibiotic at which the highest inoculum no longer grows.

[4] = pH-STAT beta-lactam hydrolysis assay, substrate ceftriaxone; format: biochemical; conditions: 37° C., pH=7.0
Experimental: (§1) The purified proteins were tested on different beta-lactams (amoxicillin (Apollo Scientific), Augmentin® (GlaxoSmithKline) and Ceftriaxone (Rocéphine®, Roche)). The assays are carried out at pH-STAT (Titrino 2.5, Metrohm) in a reaction volume of 25 ml at 37° C. and pH=7.0. The substrates are prepared at 4 g/l in a 0.3 mM Tris buffer, 150 mM NaCl. The enzyme hydrolysis of the beta-lactam nuclei releases an acid and induces a drop in the pH. The principle of the assay is to compensate for the acidification by the addition of 0.1 N sodium hydroxide so as to remain at pH=7.0. In these conditions, one unit corresponds to 1 μmole of sodium hydroxide added per minute, that is, one μmole of beta-lactam hydrolysed per minute. Table 3 below lists the specific activities measured for each protein on the three substrates (mean of 6 replicates).
The purified proteins were tested on different antibiotics: Ceftriaxone (RocéphineED, Roche) for the beta-lactams and kanamycin for the Aminoglycosides. The assays on ceftriaxone were carried out at pH-STAT (Titrino 2.5, Metrohm) in a reaction volume of 25 ml at 37° C. and pH=7.0. The substrates are prepared at 4 g/l in a 0.3 mM Tris buffer, 150 mM NaCl. The enzyme hydrolysis of the beta-lactam nuclei releases an acid and results in a drop in the pH. The principle of the assay is to compensate this acidification by the addition of 0.1 N sodium hydroxide so as to remain at pH=7.0. In these conditions, one unit corresponds to 1 μmol of sodium hydroxide added per minute, that is one μmol of beta-lactam hydrolyzed per minute.

[5] = pH-STAT beta-lactam hydrolysis assay, substrate amoxicillin; format: biochemical; conditions: 37° C., pH=7.0
Experimental: as §1

[6] = pH-STAT beta-lactam hydrolysis assay, substrate Augmentin; format: biochemical; conditions: 37° C., pH=7.0
Experimental: as §1

[7] = Table 3, proteins produced in Pichia pastoris, substrate 4 g/l, mean of 6 replicates
[8] = Table 5 (Example 2), proteins produced in Pichia pastoris
[9] = Table 7 (Example 3), proteins produced in Pichia pastoris
[10] = Table 9, proteins produced in Escherichia coli BL21(DE3) pLysS
[11] = Table 3, proteins produced in Pichia pastoris, substrate 4 g/l, 1 U = 1 μmole beta-lactam hydrolysed per minute, mean of 6 replicates
[12] = Table 9, proteins produced in Escherichia coli BL21(DE3) pLysS (periplasm, non-glycosylated)
[13] = BL21(DE3)pLysS + protein, IPTG induced, LB-agar, 37° C. overnight
[14] = BL21(DE3)pLysS + protein, IPTG induced, LB-agar, 37° C. over night

For CC1(C)S[C@@H]2[C@H](NC(=O)[C@H](N)c3ccc(O)cc3)C(=O)N2[C@H]1C(=O)O [Amoxicillin, amoxicillin, reference compound], the “MIC of the antibiotic for the empty strain BL21(DE3)pLysS” value (“MIC of the antibiotic” for short) (E. coli BL21(DE3)pLysS [1]) is given as under 0.5 μg/ml, the “Patients with acute diarrhoea induced by antibiotics” value ([2]; patients receiving antibiotic therapy) is given as 5-10% and the “MIC of the antibiotic” value (E. coli BL21(DE3)pLysS [3]; empty strain, no recombinant protein) is given as under 2 μg/ml.

In the case of CO/N=C(\C(=O)N[C@@H]1C(=O)N2C(C(=O)O)=C(CSc3nc(=O)c(O)nn3C)CS[C@H]12)c1csc(N)n1 [Rocephine, Ceftriaxone, reference compound], the “MIC of the antibiotic” value (E. coli BL21(DE3)pLysS [1]) is reported as under 0.5 μg/ml.

For CC[C@H]1OC(=O)[C@H](C)[C@@H](O[C@H]2C[C@@](C)(OC)[C@@H](O)[C@H](C)O2)[C@H](C)[C@@H](O[C@@H]2O[C@H](C)C[C@H](N(C)C)[C@H]2O)[C@](C)(O)C[C@@H](C)CN(C)[C@H](C)[C@@H](O)[C@]1(C)O [azithromycin], the “Patients with acute diarrhoea induced by antibiotics” value ([2]; human, in vivo) is given as 2-5%.

B1: TEM36-GGGGGG-CTXM16: SEQ ID 8; fusion TEM36 and CTXM16 with flexible 6 glycine linker, 532 aa (protein)
chain: HPETLVKVKDAEDQLGARVGYIELDLNSGKILESFRPEERFPMVSTFKVLLCGAVLSRVDAGQEQLGRRIHYSQNDLVEYSPVTEKHLTDGMTVRELCSAAITMSDNTAANLLLTTIGGPKELTAFLHNMGDHVTRLDRWEPELNEAIPNDERDTTMPAAMATTLRKLLTGELLTLASRQQLIDWMEADKVAGPLLRSALPAGWFIADKSGAGERGSRGIIAALGPDGKPSRIVVIYTTGSQATMDERDRQIAEIGASLIKHWGGGGGGQTSAVQQKLAALEKSSGGRLGVALIDTADNTQVLYRGDERFPMCSTSKVMAAAAVLKQSETQKQLLNQPVEIKPADLVNYNPIAEKHVNGTMTLAELSAAALQYSDNTAMNKLIAQLGGPGGVTAFARAIGDETFRLDRTEPTLNTAIPGDPRDTTTPRAMAQTLRQLTLGHALGETQRAQLVTWLKGNTTGAASIRAGLPTSWTAGDKTGSGGYGTTNDIAVIWPQGRAPLVLVTYFTQPQQNAESRRDVLASAARIIAEGL
modifications: TEM36-GGGGGG-CTXM16
notes: fusion TEM36 and CTXM16 with flexible 6 glycine linker, 532 aa
In the case of B1, the “Specific activity, substrate Ceftriaxone” value [4, 7] is reported as 114 ± 44 U/mg, the “Specific activity, substrate Ceftriaxone” value [4, 8] is reported as 123 ± 35 U/mg and the “Specific activity, substrate Ceftriaxone” value [4, 9] is reported as 141 ± 55 U/mg. For the same molecule, the “Specific activity, substrate Ceftriaxone” value [4, 10] was 138 ± 32 U/mg, the “Specific activity, substrate Amoxicillin” value [5, 11] was 695 ± 98 U/mg and the “Specific activity, substrate Amoxicillin” value [5, 8] was 890 ± 83 U/mg. The “Specific activity, substrate Amoxicillin” value [5, 9] was 890 ± 176 U/mg, the “Specific activity, substrate Amoxicillin” value [5, 12] was 633 ± 99 U/mg and the “Specific activity, substrate Augmentin” value [6, 7] was 42 ± 33 U/mg. For the same molecule, the “Specific activity, substrate Augmentin” value [6, 8] was 42 ± 14 U/mg, the “Specific activity, substrate Augmentin” value [6, 9] was 34 ± 6 U/mg and the “Specific activity, substrate Augmentin” value [6, 10] was 24 ± 5 U/mg.

B2: TEM-36: SEQ ID 1; clavulanic acid-resistant class A β-lactamase (IR-TEM, aminopenicillinase), 263 aa; constituent enzyme (protein, listed as Escherichia coli)
chain: HPETLVKVKDAEDQLGARVGYIELDLNSGKILESFRPEERFPMVSTFKVLLCGAVLSRVDAGQEQLGRRIHYSQNDLVEYSPVTEKHLTDGMTVRELCSAAITMSDNTAANLLLTTIGGPKELTAFLHNMGDHVTRLDRWEPELNEAIPNDERDTTMPAAMATTLRKLLTGELLTLASRQQLIDWMEADKVAGPLLRSALPAGWFIADKSGAGERGSRGIIAALGPDGKPSRIVVIYTTGSQATMDERDRQIAEIGASLIKHW
In the case of B2, the “MIC of Amoxicillin for E. coli strain expressing the protein” value (from here on “MIC of Amoxicillin”) (E. coli BL21(DE3)pLysS [1]; [13]) is reported as over 1024 µg/mL, the “MIC of Augmentin for E. coli strain expressing the protein” value (shortened to “MIC of Augmentin”) (E. coli BL21(DE3)pLysS [1]; [13]) is reported as 512 µg/mL and the “MIC of Rocephine for E. coli strain expressing the protein” value (E. coli BL21(DE3)pLysS [1]; [13]) is reported as under 0.5 µg/mL. For the same molecule, the “Specific activity, substrate Ceftriaxone” value [4, 7] was 0 U/mg, the “Specific activity, substrate Ceftriaxone” value [4, 8] was 0 U/mg and the “Specific activity, substrate Ceftriaxone” value [4, 9] was 0 U/mg. The “Specific activity, substrate Ceftriaxone” value [4, 10] was 1 ± 1 U/mg, the “Specific activity, substrate Amoxicillin” value [5, 11] was 816 ± 90 U/mg and the “Specific activity, substrate Amoxicillin” value [5, 8] was 816 ± 90 U/mg. For the same molecule, the “Specific activity, substrate Amoxicillin” value [5, 9] was 816 ± 90 U/mg, the “Specific activity, substrate Amoxicillin” value [5, 12] was 3593 ± 87 U/mg and the “MIC of Amoxicillin” value (E. coli BL21(DE3)pLysS [3]; [14]) was over 2048 µg/mL. For the same molecule, the “MIC of Augmentin” value (E. coli BL21(DE3)pLysS [3]; [14]) was 512 µg/mL, the “Specific activity, substrate Augmentin” value [6, 7] was 97 ± 74 U/mg and the “Specific activity, substrate Augmentin” value [6, 8] was 97 ± 74 U/mg. For the same molecule, the “Specific activity, substrate Augmentin” value [6, 9] was 97 ± 74 U/mg and the “Specific activity, substrate Augmentin” value [6, 10] was 385 ± 31 U/mg.

B3: EreB: SEQ ID 5; erythromycin esterase, P05789.1, 419 aa (protein, listed as Escherichia coli)
chain: MRFEEWVKDKHIPFKLNHPDDNYDDFKPLRKIIGDTRVVALGENSHFIKEFFLLRHTLLRFFIEDLGFTTFAFEFGFAEGQIINNWIHGQGTDDEIGRFLKHFYYPEELKTTFLWLREYNKAAKEKITFLGIDIPRNGGSYLPNMEIVHDFFRTADKEALHIIDDAFNIAKKIDYFSTSQAALNLHELTDSEKCRLTSQLARVKVRLEAMAPIHIEKYGIDKYETILHYANGMIYLDYNIQAMSGFISGGGMQGDMGAKDKYMADSVLWHLKNPQSEQKVIVVAHNAHIQKTPILYDGFLSCLPMGQRLKNAIGDDYMSLGITSYSGHTAALYPEVDTKYGFRVDNFQLQEPNEGSVEKAISGCGVTNSFVFFRNIPEDLQSIPNMIRFDSIYMKAELEKAFDGIFQIEKSSVSEVVYE
For B3, the “MIC of Amoxicillin” value (E. coli BL21(DE3)pLysS [3]; [14]) was under 2 µg/mL, the “MIC of Augmentin” value (E. coli BL21(DE3)pLysS [3]; [14]) was under 2 µg/mL and the “MIC of Erythromycin for E. coli strain expressing the protein” value (E. coli BL21(DE3)pLysS [3]; [14]) was over 1024 µg/mL.

— patent US20170354706A1, “HYBRID PROTEINACEOUS MOLECULE CAPABLE OF INHIBITING AT LEAST ONE ANTIBIOTIC AND PHARMACEUTICAL COMPOSITION CONTAINING IT” (priority 2014, published 2017)
